Reference: patent publication US20060251733A1

Target: FcγR (receptor for the Fc portion of immunoglobulin molecule) on bone marrow derived macrophages (mouse)
Assay: cell-based or functional assay

IL-10 production by BMMφ (ELISA of supernatants), LPS + E-IgG: 10 ng/mL | IL-10 production by BMMφ (ELISA of supernatants), LPS + E-IgG against LPS alone: > 5 fold
Substance: IgG-opsonized erythrocytes (E-IgG): sheep erythrocytes (SRBC) opsonized with rabbit IgG antibody to SRBC
